# Measured values published in PMC10140047, “BICD2 phosphorylation regulates dynein function and centrosome separation in G2 and M” (Nature Communications, 2023).
# B1: GST-Rab6A (natural protein, human, UniProt P20340 1-208, looked up)
# chain: MSTGGDFGNPLRKFKLVFLGEQSVGKTSLITRFMYDSFDNTYQATIGIDFLSKTMYLEDRTVRLQLWDTAGQERFRSLIPSYIRDSTVAVVVYDITNVNSFQQTTKWIDDVRTERGSDVIIMLVGNKTDLADKRQVSIEEGERKAKELNVMFIETSAKAGYNVKQLFRRVAAALPGMESTQDRSREDMIDIKLEKPQEQPVSEGGCSC
# notes: Preloaded with either GDP or GTPγS before the pull-down
# B2: TwinStrep-BICD2 S102D (natural protein, mouse, UniProt Q921C5 1-820, looked up)
# chain: MSAPSEEEEYARLVMEAQPEWLRAEVKRLSHELAETTREKIQAAEYGLAVLEEKHQLKLQFEELEVDYEAIRSEMEQLKEAFGQAHTNHKKVAADGESREEDLIQESASKEQYYVRKVLELQTELKQLRNVLTNTQSENERLTSVAQELKEINQNVEIQRGRLRDDIKEYKFREARLLQDYSELEEENISLQKQVSVLRQNQVEFEGLKHEIKRLEEETEYLNSQLEDAIRLKEISERQLEEALETLKTEREQKNNLRKELSHYMSINDSFYTSHLQVSLDGLKFSDDTVTAEPNNDAEALVNGFEHSGLVKSSLDNKTSTPRKDGLAPPSPSLVSDLLSELHISEIQKLKQQLVQMEREKVGLLATLQDTQKQLEQARGTLSEQHEKVNRLTENLSALRRLQAGKERQTSLDNEKDRDSHEDGDYYEVDINGPEILACKYHVAVAEAGELREQLKALRSTHEAREAQHAEEKGRYEAEGQALTEKISLLEKASHQDRELLAHLEKELKKVSDVAGETQGSLNVAQDELVTFSEELANLYHHVCMCNNETPNRVMLDYYREGQGKAGRTSPEGRGRRSPVLLPKGLLATEVGRADGGTGDNSPSPSSSLPSPLSDPRREPMNIYNLIAIIRDQIKHLQAAVDRTTELSRQRIASQELGPAVDKDKEALMEEILKLKSLLSTKREQITTLRTVLKANKQTAEVALANLKSKYENEKAMVTETMMKLRNELKALKEDAATFSSLRAMFATRCDEYITQLDEMQRQLAAAEDEKKTLNSLLRMAIQQKLALTQRLELLELDHEQTRRGRSKAASKAKPASPSL
# notes: BICD2, mouse, with S102D (pLIB-TwinStrep-3C-BICD2 S102D); A 3C site lies between tag and protein; no cleavage is described; also called full-length BICD2 S102D; S102D TwinStrep-BICD2; source: insect cells (baculovirus), purified (StrepTactinXT, Superdex 200); not shown: TwinStrep, N-terminal, kept
# Assays:
# GST-Rab6A = target: B1; test: pull-down; GST-Rab6 on GSH agarose beads preloaded with GTPγS, incubated 90 min at RT with purified TwinStrep-BICD2 in Binding Buffer (50 mM Tris pH 7.4, 125 mM NaCl, 5 mM EDTA, 0.1% NP40); blot with anti-BICD2; conditions: both partners purified
# TwinStrep-BICD2 S102D = target: B2; test: as above; conditions: both partners purified
# [1] = target: the molecule itself; test: SEC-MALS; purified TwinStrep-BICD2 WT and S102D; predicted MW of ~190 kDa
Binder,fold binding against Rab6 preloaded with GDP (GST-Rab6A) [fold],binding result (TwinStrep-BICD2 S102D),stoichiometry N [1]
"TwinStrep-BICD2 WT (natural protein, mouse, UniProt Q921C5 1-820, looked up, BICD2, mouse cDNA amplified from the pEGFP constructs into pLIB-TwinStrep-3C-BICD2; A 3C site lies between tag and protein; no cleavage is described; also called full-length BICD2 WT; wild type TwinStrep-BICD2; source: insect cells (baculovirus), purified (StrepTactinXT, Superdex 200); not shown: TwinStrep, N-terminal, kept) MSAPSEEEEYARLVMEAQPEWLRAEVKRLSHELAETTREKIQAAEYGLAVLEEKHQLKLQFEELEVDYEAIRSEMEQLKEAFGQAHTNHKKVAADGESREESLIQESASKEQYYVRKVLELQTELKQLRNVLTNTQSENERLTSVAQELKEINQNVEIQRGRLRDDIKEYKFREARLLQDYSELEEENISLQKQVSVLRQNQVEFEGLKHEIKRLEEETEYLNSQLEDAIRLKEISERQLEEALETLKTEREQKNNLRKELSHYMSINDSFYTSHLQVSLDGLKFSDDTVTAEPNNDAEALVNGFEHSGLVKSSLDNKTSTPRKDGLAPPSPSLVSDLLSELHISEIQKLKQQLVQMEREKVGLLATLQDTQKQLEQARGTLSEQHEKVNRLTENLSALRRLQAGKERQTSLDNEKDRDSHEDGDYYEVDINGPEILACKYHVAVAEAGELREQLKALRSTHEAREAQHAEEKGRYEAEGQALTEKISLLEKASHQDRELLAHLEKELKKVSDVAGETQGSLNVAQDELVTFSEELANLYHHVCMCNNETPNRVMLDYYREGQGKAGRTSPEGRGRRSPVLLPKGLLATEVGRADGGTGDNSPSPSSSLPSPLSDPRREPMNIYNLIAIIRDQIKHLQAAVDRTTELSRQRIASQELGPAVDKDKEALMEEILKLKSLLSTKREQITTLRTVLKANKQTAEVALANLKSKYENEKAMVTETMMKLRNELKALKEDAATFSSLRAMFATRCDEYITQLDEMQRQLAAAEDEKKTLNSLLRMAIQQKLALTQRLELLELDHEQTRRGRSKAASKAKPASPSL",~5,–,–
B1,–,binds,–
B2,~5,–,2
